The text below walks through data of paper PMC4006922, “The Human Adenovirus E4-ORF1 Protein Subverts Discs Large 1 to Mediate Membrane Recruitment and Dysregulation of Phosphatidylinositol 3-Kinase” (PLoS Pathogens, 2014).

This assay addresses T1, purified, catalytically-active recombinant human p85α:p110α heterodimer (human, UniProt P27986 1-724; P42336 1-1068).
T1 construct: human PI3K regulatory subunit p85α; human PI3K catalytic subunit p110α; also called recombinant human PI3K; purified recombinant PI3K protein; source: bought: SignalChem (co-expression in Sf9 cells, >90% pure)
In words: pull-down; purified recombinant human PI3K (1 µg) with GST or GST-Ad9 E4-ORF1 on glutathione-sepharose beads; immunoblot with p85α and p110α antibodies. The conditions noted are these: both partners purified. (In western blotting, separated proteins are transferred to a membrane and probed.)

T1 sequence (P27986 whole entry, chain 1 of 2): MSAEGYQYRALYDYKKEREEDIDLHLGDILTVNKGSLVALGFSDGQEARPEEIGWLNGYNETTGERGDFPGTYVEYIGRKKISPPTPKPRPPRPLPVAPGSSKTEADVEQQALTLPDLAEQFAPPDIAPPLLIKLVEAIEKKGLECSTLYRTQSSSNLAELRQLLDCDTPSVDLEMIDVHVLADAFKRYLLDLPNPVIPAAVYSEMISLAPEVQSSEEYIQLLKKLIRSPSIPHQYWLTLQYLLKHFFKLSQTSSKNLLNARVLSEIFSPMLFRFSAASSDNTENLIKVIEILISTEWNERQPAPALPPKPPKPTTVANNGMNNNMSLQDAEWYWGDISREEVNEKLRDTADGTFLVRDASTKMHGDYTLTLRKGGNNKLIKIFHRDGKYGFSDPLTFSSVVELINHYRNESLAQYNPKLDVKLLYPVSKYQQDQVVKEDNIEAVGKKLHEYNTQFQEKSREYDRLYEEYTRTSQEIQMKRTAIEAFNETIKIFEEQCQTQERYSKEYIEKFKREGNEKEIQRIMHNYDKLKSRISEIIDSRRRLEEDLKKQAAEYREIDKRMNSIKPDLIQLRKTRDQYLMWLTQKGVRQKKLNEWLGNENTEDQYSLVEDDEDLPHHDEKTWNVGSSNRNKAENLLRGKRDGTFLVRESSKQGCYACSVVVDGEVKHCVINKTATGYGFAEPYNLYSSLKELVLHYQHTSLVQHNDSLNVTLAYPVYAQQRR
T1 sequence (P42336 whole entry, chain 2 of 2): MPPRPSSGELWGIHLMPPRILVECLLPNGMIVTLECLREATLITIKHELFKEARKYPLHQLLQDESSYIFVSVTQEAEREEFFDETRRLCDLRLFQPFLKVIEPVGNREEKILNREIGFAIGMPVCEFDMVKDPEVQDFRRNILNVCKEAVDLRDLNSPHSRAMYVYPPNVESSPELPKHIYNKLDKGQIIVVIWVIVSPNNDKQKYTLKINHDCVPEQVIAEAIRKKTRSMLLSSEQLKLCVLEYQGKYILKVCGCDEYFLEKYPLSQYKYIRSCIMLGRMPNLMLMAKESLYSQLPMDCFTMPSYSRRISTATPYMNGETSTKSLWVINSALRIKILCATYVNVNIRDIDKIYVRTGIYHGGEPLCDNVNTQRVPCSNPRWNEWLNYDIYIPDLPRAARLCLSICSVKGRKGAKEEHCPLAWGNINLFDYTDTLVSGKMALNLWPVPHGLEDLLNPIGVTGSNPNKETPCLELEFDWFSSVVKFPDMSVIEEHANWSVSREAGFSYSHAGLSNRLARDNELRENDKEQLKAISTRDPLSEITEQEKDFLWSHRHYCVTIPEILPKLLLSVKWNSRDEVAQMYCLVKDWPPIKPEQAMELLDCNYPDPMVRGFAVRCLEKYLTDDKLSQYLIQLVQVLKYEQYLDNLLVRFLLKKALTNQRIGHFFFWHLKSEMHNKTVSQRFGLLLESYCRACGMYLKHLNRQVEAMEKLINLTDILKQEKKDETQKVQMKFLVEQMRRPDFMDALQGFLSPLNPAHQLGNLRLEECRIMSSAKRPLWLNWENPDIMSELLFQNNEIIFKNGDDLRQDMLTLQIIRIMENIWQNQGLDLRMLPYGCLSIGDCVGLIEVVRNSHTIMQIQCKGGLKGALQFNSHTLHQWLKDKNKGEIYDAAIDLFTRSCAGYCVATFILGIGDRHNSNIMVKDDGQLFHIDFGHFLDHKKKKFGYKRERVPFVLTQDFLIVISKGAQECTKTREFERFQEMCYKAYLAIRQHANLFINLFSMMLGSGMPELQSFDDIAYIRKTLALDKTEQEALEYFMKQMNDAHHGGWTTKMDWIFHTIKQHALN

B1: GST-Ad9 E4-ORF1 fusion protein (natural protein)
chain: MAESLYAFIDSPGGIAPVQEGTSNRYTFFCPESFHIPPHGVVLLHLKVSVLVPTGYQGRFMALNDYHARDILTQSDVIFAGRRQELTVLLFNHTDRFLYVRKGHPVGTLLLERVIFPSVKIATLV
notes: Human adenovirus type 9 (Ad9) E4-ORF1 protein, wild type; also called GST-E4-ORF1; glutathione S-transferase (GST) fused to Ad9 E4-ORF1; source: bacterially expressed fusion protein (plasmid pGEX-2TK with wt E4-ORF1 cDNA), on glutathione-sepharose beads
As for B1, the binding result is on record as “binds”.
